B1: ADI-41457 (antibody, V domains shown)
VH: EVQLVESGGGLVRPGGSLRVSCAASGFTFIRYDMHWVRQAPGKGLEWVSGIGTAGDTYYAASVQGRFTISRENAKNSLYLQMSNLRPGDTAVYYCAGSMAATGIDQWGQGTLVTVSS
VL: EIVMTQSPLTLPVTPGEPASISCRSSQSLLHSNGFTYLDWFLQKPGQSPQLLIFLGSNRASGVPDRFSGSGSGTDFTLKISRVEAEDVGIYYCMQALQTPYTFGQGTKVEIK
notes: also called Ab 741; Antibody Number 741
B2: ADI-41476 (antibody, V domains shown)
VH: EVQLLESGGGLVQPGGSLRLSCATSGFRFTRYWMHWVRQAPGKGLEWVARINFDGTTTNYADSVKGRFTVSRDNAKNTLYLQINSLRAEDTAVYFCARDQTFLEWLPFESWGQGTLVTVSS
VL: QTVVTQEPSFSVSPGGTVTLTCGLTSGSVSTSYYPSWYQQTPGQAPRTLIYNTKTRFSGVPDRFSGSILGNKAALTITGAQADDESDYYCVLYMSGGMVFGGGTKLTVL
B3: ADI-41489 (antibody, V domains shown)
VH: EVQLVESGGGVVQPGRSLRLSCAASGFNFHNYAFHWVRQAPGKGLDWVAVTSYDGSSAFYADSVKGRFTISRDNSKKILYLQMTSLRAEDTALYYCARGSSSWSGDYFDYWGQGILVTVSS
VL: DIVMTQSPVTLSVSPGERATLSCRASQSVGSNLAWYQQKHGQTPRLLIYDASTRATSIPARFSGSGSGTEFTLTISSLQSEDFAVYYCQQYNKWPSYTFGQGTKVEIK
notes: also called Ab 770; Antibody Number 770
B4: ADI-41491 (antibody, V domains shown)
VH: EVQLLESGGGLVQPGGSLRLSCAASGFTFSSYSMNWVRQAPGKGLEWVSYMSSDRSAIYYSDSVKDRFTISRDNAKNSLYLQMHSLRAEDTAVYYCARRYCSSTSCYRGLGYYYGMDVWGQGTTVTVSS
VL: SYELTQPPSVSVAPGQTARITCGGSNIGNKDVHWYQQKPGQAPVLVVYDDSDRPSGIPERFAGSNSGNTATLTISRVEAGDEADYYCQVWHSAGDHVVFGGGTKLTVL
B5: ADI-41501 (antibody, V domains shown)
VH: QVQLVQSGAEVKKPGSSVKVSCKASGGIFSDFAISWVRQAPGQGLEWMGGIITIIGTPEYAQKFQGRVRITADESTTTVFMELSRLTSEDTAVYYCARDSRYGSGWYWDHWGQGTLVTVSS
VL: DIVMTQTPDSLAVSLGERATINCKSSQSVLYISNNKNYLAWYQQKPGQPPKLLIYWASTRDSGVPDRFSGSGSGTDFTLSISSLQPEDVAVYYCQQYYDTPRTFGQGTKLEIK
notes: also called Ab 780; Antibody Number 780
B6: ADI-41516 (antibody, V domains shown)
VH: EVQLLESGPRLVKPSETLSLTCIVSGGFISYDYWSWIRQPAGKGLEWIGRIYAGGIPKYNPSLKSRVTMSLDMSNNQFSLRLKSVTAADSAVYYCARAEPCSGDCFLGENPFDSWGQGTLVTVSS
VL: QSVLTQPPSASGTPGQRVTISCSGSSSSIGSNYVYWYQQLPGTAPKLLIHKDNERPSGVPDRFSGSKSGTSASLAISGLRSEDEGDYSCAAWDDSLSGWVFGGGTKLTVL
B7: ADI-41517 (antibody, V domains shown)
VH: QVQLVQSGGGLVQPGGSLRLACAASGFTLSGYAMNWVRQAPGKGLEWVSSISGSGGSTYYADSVKGRFTTSRDNSKNTVFLHMNSLRAEDTAIYYCATVPWETGPFDHWGQGTLVTVSS
VL: QSVLTQPPSVSGAPGQRVTISCTGSSSNIGAGYAVHWYQQLPGTAPKLLIHGTTNRPSGVPDRFSGSKSGTSASLAITGLQAEDEADYYCQSYDSRLSGYVFGTGTKLTVL
B8: ADI-41521 (antibody, V domains shown)
VH: EVQLVESGGGLVQPGRSLRLSCAASGFTFDDFAMDWVRQVPGKGLEWVSGISWNGVSKDYAGSVKGRFTISRDNAKNSLYLQMNSLRAEDTALYFCAKARRDVYNWGDAFDIWGQGTMVTVSS
VL: DIRLTQSPGTLSLSPGERATLSCRASQPLNSNYLAWYRQKPGQAPRLLIFDASSRATGVPDRISGSGSGTDFTLTVSRLEPEDIAVYYCQQYASSPWTFGLGTKVEIK
B9: ADI-41523 (antibody, V domains shown)
VH: QVQLVQSGAEVKKPGESLRISCKGSGDTFSNYWIGWVRQMPGKGLEWMGIIYPGDSDTRYSPSFQGQVTFSADKSISTAYLQWSSLKASDTAMYYCVRQVGGVVVTDTDNYYYGMDVWGQGTTVTVSS
VL: DIRLTQSPSSLSASVGDRVTITCRASQSIRSYLNWYQQKPGKAPKLLIYSASSLQSGVPSRFSGSGSGTDFTLTISSLQPEDFATYYCQQSHSTPLTFGPGTKVDIK
B10: ADI-41524 (antibody, V domains shown)
VH: EVQLVESGGGLVQPGRSLRLSCTGSGFTFGDYAISWFRQAPGKGLEWVGFIRSKPYGGTTEYAASVKGTFTISRDDSKSIAYLQMNSLKTGDTAVYFCTRGIWGITMIVPWSDPWGQGTLVTVSS
VL: DIVMTQTPLSLPVTPGEPASISCRSSQSLLHSNGFNYLAWYLQKPGQSPQLLIYLNSNRASGVPDRFSGSGSGTDFTLKISRVEAEDVGVYYCMQALQTPLTFGPGTKLEIK
B11: ADI-43644 (antibody, V domains shown)
VH: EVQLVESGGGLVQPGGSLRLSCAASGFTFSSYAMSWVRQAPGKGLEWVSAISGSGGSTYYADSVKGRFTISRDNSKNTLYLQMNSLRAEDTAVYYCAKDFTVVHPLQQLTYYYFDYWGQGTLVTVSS
VL: DIVLTQSPATLSLSPGERATLSCRASQSVSSYLAWYQQKPGQAPRLLIYDASNRATGIPARFSGSGSGTDFTLTISSLEPEDFAVYYCQQRSNWPPGFTFGGGTKVEIK
B12: ADI-43645 (antibody, V domains shown)
VH: QVQLVQSGAEVKKPGSSVKVSCKASGGTFSSYAISWVRQAPGQGLEWMGGIIPIFGTANYAQKFQGRVTITADESTSTAYMELSSLRSEDTAVYYCARGWRGGGMTGSYYYYGMDVWGQGTTVTVSS
VL: DIQVTQTPSTLSASVGDRVTITCRASQSISSWLAWYQQKPGKAPKLLIYKASSLESGVPSRFSGSGSGTEFTLTISSLQPDDFATYYCQQHRGTFGQGTKVDIK
notes: also called Ab 826; Antibody Number 826
B13: ADI-41208 (antibody, V domains shown)
VH: QVQLVESGGDLVKPGGSLRLSCAASGFTLSGHYMSWIRQPPGKGLEWVSSISGGSTYTNYADSVKGRFTISRDNAENSLYLQMNSLRAEDTAVYYCARLAYSDYGPFYFDLWGRGTLVTVSS
VL: QSVLTQPPSVSGAPGQRVTISCTGSSSNIGAGYDVHWYQQLTGTAPKLLIFDNNNRPSGVPDRFSGSKSGTSASLAITGLQAEDEADYYCQSYDSRLSAPYVFGTGTKLTVL
B14: ADI-41256 (antibody, V domains shown)
VH: QVQLVQSGAEVKSPGSSATVSCKASGGTFGSYGISWVRQAPGQGLEWIGAIMPMFGTTNYAQKFQGRVTMTADESTSTVYMDVSSLRPDDTAVYYCVRDVFYDILTGYYDADYYHHYMDVWGKGTTVTVSS
VL: DIVMTQSPLSLPVTLGQPASISCRSGQSLVHSDGNTYLNWFQQRPGQSPRRLIYKVSNRGSGVPDRFSGSGSGTDFTLKISRVEAEDVGVYFCMQGTHWPRTFGQGTKVDIK
notes: also called Ab 578; Antibody Number 578
B15: ADI-41259 (antibody, V domains shown)
VH: QVQLVESGGRLVKPGGSLRLSCAASGFTFSDFYMSWIRQAPGKGLEWVSYISSSGDDPNYADSVKGRFTISRDNSKNSLYLQMNSLRAEDTAVYYCARDEVGWNNLDYYFGMDVWGQGTTVTVSS
VL: DIVMTQSPLSLPVTLGQPASISCRSSQSLVHSDGNTYLSWFHQRPGQSPRRLIYKVSNRDSGVPNRFSGGGSGTDFTLKISRVEAEDVGFFYCMQGTHWQKTFGQGTKVEIK
B16: ADI-41274 (antibody, V domains shown)
VH: EVQLVESGGGLVKPGGSLRLSCAASGFSFSSYAMNWVRQAPGKGLQWVSSISAGSSYIDYADSVKGRFTISRDNAENSLFLQMNSLRVEDTAVYYCARVGSYTHGYEFDYWGQGTLVTVSS
VL: QPVLTQPPSVSGAPGQRVTISCTGSNSNIGAGYDVHWYQQLPGTAPKLLIYASTIRPSGVPDRFSGSKSGTSASLAITGLQAEDEADYYCQSYDRNLSVVFGGGTKVTVL
notes: also called Ab 592; Antibody Number 592
B17: ADI-41302 (antibody, V domains shown)
VH: QVQLVESGGGVVQPGRSLRLSCAASGFTFSSYAMQWVRQAPGKGLEWVAVMTNDGDDKYYADSVRGRFTISRDNSKNTLYLQMNNLRPEDTAVYYCARDLFEWWELLGYCYAMDVWGQGTTVTVSS
VL: QSVLTQPPSASGSPGQSVTISCTGTSSDVGAYNYVSWYQQHPGKAPKLIIYEVYKRPSGVPDRFFGSKSGNTASLTVSGLQAEDEADYYCSSYAGSNTLGVFGGGTKVTVL

These binders were tested against RSV postfusion F (postF), F ΔFP (Respiratory Syncytial Virus, UniProt P03420 26-513) (assay: BLI, IgG on anti-human IgG sensor).

| Binder | binding result |
| --- | --- |
| B1 | no binding |
| B2 | no binding |
| B3 | no binding |
| B4 | no binding |
| B5 | no binding |
| B6 | no binding |
| B7 | no binding |
| B8 | no binding |
| B9 | no binding |
| B10 | no binding |
| B11 | no binding |
| B12 | no binding |

Each binder was assayed against RSV prefusion F (preF), DS-Cav1 stabilized trimer, subtype A (Respiratory Syncytial Virus, subtype A, UniProt P03420 26-513) (assay: BLI, apparent IgG KD (Table 9A)).

| Binder | Kd [nM] |
| --- | --- |
| B13 | 0.48 |
| B14 | 0.35 |
| B15 | 0.34 |
| B16 | 0.48 |
| B17 | 0.65 |

The binders below were run against RSV F on RSV-A2 virus (Respiratory Syncytial Virus (RSV-A2), UniProt P03420 26-574) (assay: cell-based or functional assay).

| Binder | Neutralization IC50 (RSV subtype A) [µg/mL] |
| --- | --- |
| B1 | > 25 |
| B2 | > 25 |
| B3 | > 25 |
| B4 | > 25 |
| B5 | > 25 |
| B6 | 0.08 |
| B7 | 0.02 |
| B8 | > 25 |
| B9 | > 25 |
| B10 | > 25 |
| B11 | > 25 |
| B12 | > 25 |

Each binder was assayed against RSV prefusion F (preF), DS-Cav1 (Respiratory Syncytial Virus, UniProt P03420 26-513) (assay: BLI, IgG on anti-human IgG sensor, 100 nM antigen, 1:1 fit).

| Binder | Kd [nM] |
| --- | --- |
| B1 | 3.33 |
| B2 | 3.86 |
| B3 | 88 |
| B4 | 0.439 |
| B5 | 3.21 |
| B6 | 0.414 |
| B7 | 0.501 |
| B8 | 1.68 |
| B9 | 2.91 |
| B10 | 3.18 |
| B11 | 29.3 |
| B12 | 8.7 |

What follows are binders tested against RSV F on RSV subtype A virus (RSV-A2) (Respiratory Syncytial Virus, subtype A, …, UniProt P03420 26-574) (assay: cell-based or functional assay).

| Binder | Neutralization - RSV A2 IC50 (pM) | neut IC50 (ug/ml) subtype A (wright) [µg/mL] |
| --- | --- | --- |
| B13 | 310 | 0.077 |
| B14 | 85.8 | 0.019 |
| B15 | 122 | 0.015 |
| B16 | 26.6 | 0.109 |
| B17 | 133 | 0.006 |

The binders below were run against RSV postfusion F (postF), F ΔFP trimer, subtype A (Respiratory Syncytial Virus, subtype A, UniProt P03420 26-513) (assay: BLI, IgG (Table 9A)).

| Binder | binding result |
| --- | --- |
| B13 | no binding |
| B14 | no binding |
| B15 | no binding |
| B16 | no binding |
| B17 | no binding |

Reference: patent publication US20260258115A1 (MAPP BIOPHARMACEUTICAL, published 2026)
